Assay results reported in publication PMC9371972, “Cryo-EM structure of the human CST–Polα/primase complex in a recruitment state” (Nature Structural & Molecular Biology, 2022).

T1: POLA1^FL (subunit of PP^FL) (human, UniProt P09884 1-1462)
T1 construct: the POLA1 chain of m3; Always present with POLA2, PRIM1 and PRIM2; written alone for subunit-to-subunit cross-links; source: Tni insect cells (baculovirus), purified as part of PP^FL
T1 sequence (looked up): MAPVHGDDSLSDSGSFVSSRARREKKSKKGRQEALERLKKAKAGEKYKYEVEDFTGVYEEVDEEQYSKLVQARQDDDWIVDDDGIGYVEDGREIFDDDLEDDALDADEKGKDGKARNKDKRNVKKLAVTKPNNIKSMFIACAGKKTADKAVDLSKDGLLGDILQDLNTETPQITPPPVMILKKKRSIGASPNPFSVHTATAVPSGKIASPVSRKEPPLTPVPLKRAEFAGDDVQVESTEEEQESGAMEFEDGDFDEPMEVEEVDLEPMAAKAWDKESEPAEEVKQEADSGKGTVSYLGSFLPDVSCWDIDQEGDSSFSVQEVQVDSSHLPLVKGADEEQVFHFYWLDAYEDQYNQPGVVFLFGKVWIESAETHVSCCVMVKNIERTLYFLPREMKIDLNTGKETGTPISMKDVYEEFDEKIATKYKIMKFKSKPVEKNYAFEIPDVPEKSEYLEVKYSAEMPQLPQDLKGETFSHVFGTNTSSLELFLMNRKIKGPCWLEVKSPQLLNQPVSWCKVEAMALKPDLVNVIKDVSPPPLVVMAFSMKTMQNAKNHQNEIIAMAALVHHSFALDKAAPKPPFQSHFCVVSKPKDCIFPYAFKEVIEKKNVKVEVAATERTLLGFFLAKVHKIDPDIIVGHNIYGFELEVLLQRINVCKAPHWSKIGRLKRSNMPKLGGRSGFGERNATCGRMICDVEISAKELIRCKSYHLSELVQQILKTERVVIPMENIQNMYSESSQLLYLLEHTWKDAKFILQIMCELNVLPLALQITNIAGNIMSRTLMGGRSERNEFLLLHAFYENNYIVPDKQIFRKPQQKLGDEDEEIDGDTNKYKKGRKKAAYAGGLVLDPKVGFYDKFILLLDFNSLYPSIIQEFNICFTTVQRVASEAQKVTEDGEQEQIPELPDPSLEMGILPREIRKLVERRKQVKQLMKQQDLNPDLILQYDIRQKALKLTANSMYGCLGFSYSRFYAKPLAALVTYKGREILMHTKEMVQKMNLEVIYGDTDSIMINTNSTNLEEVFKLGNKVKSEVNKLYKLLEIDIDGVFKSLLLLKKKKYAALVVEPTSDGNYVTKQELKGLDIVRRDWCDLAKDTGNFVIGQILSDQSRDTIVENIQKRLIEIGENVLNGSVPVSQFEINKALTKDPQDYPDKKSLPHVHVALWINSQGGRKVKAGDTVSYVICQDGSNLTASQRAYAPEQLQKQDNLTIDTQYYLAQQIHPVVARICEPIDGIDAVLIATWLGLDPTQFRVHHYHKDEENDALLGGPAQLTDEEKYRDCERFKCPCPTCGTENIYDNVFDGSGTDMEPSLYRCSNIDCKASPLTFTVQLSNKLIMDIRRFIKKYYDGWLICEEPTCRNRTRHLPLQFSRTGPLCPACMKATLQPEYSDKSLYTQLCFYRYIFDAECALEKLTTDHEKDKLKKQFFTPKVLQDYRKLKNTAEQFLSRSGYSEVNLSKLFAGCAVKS

B1: CTC1 (subunit of the CST complex) (natural protein, human)
chain: MAAGRAQVPSSEQAWLEDAQVFIQKTLCPAVKEPNVQLTPLVIDCVKTVWLSQGRNQGSTLPLSYSFVSVQDLKTHQRLPCCSHLSWSSSAYQAWAQEAGPNGNPLPREQLLLLGTLTDLSADLEQECRNGSLYVRDNTGVLSCELIDLDLSWLGHLFLFPRWSYLPPARWNSSGEGHLELWDAPVPVFPLTISPGPVTPIPVLYPESASCLLRLRNKLRGVQRNLAGSLVRLSALVKSKQKAYFILSLGRSHPAVTHVSIIVQVPAQLVWHRALRPGTAYVLTELRVSKIRGQRQHVWMTSQSSRLLLLKPECVQELELELEGPLLEADPKPLPMPSNSEDKKDPESLVRYSRLLSYSGAVTGVLNEPAGLYELDGQLGLCLAYQQFRGLRRVMRPGVCLQLQDVHLLQSVGGGTRRPVLAPCLRGAVLLQSFSRQKPGAHSSRQAYGASLYEQLVWERQLGLPLYLWATKALEELACKLCPHVLRHHQFLQHSSPGSPSLGLQLLAPTLDLLAPPGSPVRNAHNEILEEPHHCPLQKYTRLQTPSSFPTLATLKEEGQRKAWASFDPKALLPLPEASYLPSCQLNRRLAWSWLCLLPSAFCPAQVLLGVLVASSHKGCLQLRDQSGSLPCLLLAKHSQPLSDPRLIGCLVRAERFQLIVERDVRSSFPSWKELSMPGFIQKQQARVYVQFFLADALILPVPRPCLHSATPSTPQTDPTGPEGPHLGQSRLFLLCHKEALMKRNFCVPPGASPEVPKPALSFYVLGSWLGGTQRKEGTGWGLPEPQGNDDNDQKVHLIFFGSSVRWFEFLHPGQVYRLIAPGPATPMLFEKDGSSCISRRPLELAGCASCLTVQDNWTLELESSQDIQDVLDANKSLPESSLTDLLSDNFTDSLVSFSAEILSRTLCEPLVASLWMKLGNTGAMRRCVKLTVALETAECEFPPHLDVYIEDPHLPPSLGLLPGARVHFSQLEKRVSRSHNVYCCFRSSTYVQVLSFPPETTISIPLPHIYLAELLQGGQSPFQATASCHIVSVFSLQLFWVCAYCTSICRQGKCTRLGSTCPTQTAISQAIIRLLVEDGTAEAVVTCRNHHVAAALGLCPREWASLLDFVQVPGRVVLQFAGPGAQLESSARVDEPMTMFLWTLCTSPSVLRPIVLSFELERKPSKIVPLEPPRLQRFQCGELPFLTHVNPRLRLSCLSIRESEYSSSLGILASSC
notes: human CTC1; the CTC1 chain of m1; Always present with STN1 and TEN1; written alone for subunit-to-subunit contacts; source: Tni insect cells (baculovirus), purified as part of CST; not shown: His6, N-terminal, cleaved; MBP, N-terminal, cleaved

What was measured:
Settings in all cases: both partners purified
[1] = target: B1; assay: cross-linking; CX-MS of the SEC-reconstituted CST–POLA1^N complex with BS3 (0.35–0.75 mM, 25 °C, 30 min), 1 mg/mL
[2] = target: T2, CTC1–STN1–TEN1 (CST) complex (human, UniProt Q2NKJ3 1-1217; Q9H668 1-368; Q86WV5 1-123); assay: SEC; purified proteins mixed (PP^FL and CST equimolar; CST with twofold molar excess of His6-MBP-POLA1^N), 1 h at 4 °C, HiLoad Superdex 200 16/600 PG, 20 mM HEPES pH 7.5, 150 mM NaCl, 0.5 mM TCEP, 5% glycerol
T2 construct: human CTC1; human STN1; human TEN1; Expressed from pBIG1a(His6-MBP-PreSc-CTC1/STN1/TEN1); tag removed with rhinovirus 3C protease; source: Tni insect cells (baculovirus), purified (Ni-NTA, 3C protease cleavage, heparin, SEC); not shown: His6, N-terminal, cleaved; MBP, N-terminal, cleaved; copies: + +

[3] = target: T1, POLA1^FL (subunit of PP^FL); assay: cross-linking; CX-MS of the SEC-reconstituted CST–PP^FL complex with DSS (0.35–0.75 mM, 25 °C, 30 min), 1 mg/mL

T2 sequence (Q9H668 whole entry, chain 2 of 2): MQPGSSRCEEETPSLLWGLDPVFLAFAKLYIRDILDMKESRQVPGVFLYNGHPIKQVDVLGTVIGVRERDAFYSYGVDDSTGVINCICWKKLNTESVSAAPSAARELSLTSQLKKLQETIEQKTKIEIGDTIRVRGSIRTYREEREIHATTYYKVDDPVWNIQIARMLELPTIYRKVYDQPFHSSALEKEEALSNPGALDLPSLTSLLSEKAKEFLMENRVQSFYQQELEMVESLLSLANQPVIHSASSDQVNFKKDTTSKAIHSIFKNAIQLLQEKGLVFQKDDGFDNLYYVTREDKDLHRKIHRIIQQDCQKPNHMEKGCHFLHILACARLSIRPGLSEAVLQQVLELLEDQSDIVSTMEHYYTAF
T2 sequence (Q86WV5 whole entry, chain 3 of 2): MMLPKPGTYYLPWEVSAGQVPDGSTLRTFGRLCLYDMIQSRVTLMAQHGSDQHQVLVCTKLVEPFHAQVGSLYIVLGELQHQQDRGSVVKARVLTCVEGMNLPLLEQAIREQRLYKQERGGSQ

| Binder | binding result [1] | binding result [2] | binding result [3] |
| --- | --- | --- | --- |
| His6-MBP-PreSc-POLA1^N (domain or fragment, human, UniProt P09884 1-339, looked up, human POLA1 N-terminal region, POLA1^N, 1–339 aa in the methods (1–335 aa in the results); MBP served as a mass label in negative-stain EM; also called MBP-POLA1^N; MBP-tagged POLA1^N; source: Tni insect cells (baculovirus), purified (Ni-NTA, SEC); not shown: His6, N-terminal, kept; MBP, N-terminal, kept) MAPVHGDDSLSDSGSFVSSRARREKKSKKGRQEALERLKKAKAGEKYKYEVEDFTGVYEEVDEEQYSKLVQARQDDDWIVDDDGIGYVEDGREIFDDDLEDDALDADEKGKDGKARNKDKRNVKKLAVTKPNNIKSMFIACAGKKTADKAVDLSKDGLLGDILQDLNTETPQITPPPVMILKKKRSIGASPNPFSVHTATAVPSGKIASPVSRKEPPLTPVPLKRAEFAGDDVQVESTEEEQESGAMEFEDGDFDEPMEVEEVDLEPMAAKAWDKESEPAEEVKQEADSGKGTVSYLGSFLPDVSCWDIDQEGDSSFSVQEVQVDSSHLPLVKGADEEQ | binds | binds | – |
| B1 | – | – | binds |
